Columns and labels:
[1] = target: murine FasL of anti-CD3-stimulated mouse T cell hybridoma cells (LTT cells) (mouse) (UniProt P41047)
[2] = target: murine FasL of anti-CD3-stimulated mouse T cell hybridoma cells (LTT cells) (mouse) (UniProt P41047); remark: listed apart in the source
[3] = target: FasL expressed by anti-CD3-activated Jurkat cells
[4] = target: soluble Fas L (recombinant FasL)
[5] = target: FasL expressed by anti-CD3-activated Jurkat cells; remark: listed apart in the source
[6] = target: hFasLigand (Flag-tagged) (human) (UniProt P48023); assay: competition ELISA: mrecFas 100 ng adsorbed, hFasLigand-Flag 30 ng, FLINT 1 ng; signal is FasL bound to Fas
[7] = target: hFasLigand (Flag-tagged) (human) (UniProt P48023); assay: competition ELISA: mrecFas 100 ng adsorbed, hFasLigand-Flag 30 ng, FLINT 5 ng; signal is FasL bound to Fas
[8] = target: hFasLigand (Flag-tagged) (human) (UniProt P48023); assay: competition ELISA: mrecFas 100 ng adsorbed, hFasLigand-Flag 30 ng, FLINT 10 ng; signal is FasL bound to Fas
[9] = target: hFasLigand (Flag-tagged) (human) (UniProt P48023); assay: competition ELISA: mrecFas 100 ng adsorbed, hFasLigand-Flag 30 ng, FLINT 50 ng; signal is FasL bound to Fas
[10] = target: hFasLigand (Flag-tagged) (human) (UniProt P48023); assay: competition ELISA: mrecFas 100 ng adsorbed, hFasLigand-Flag 30 ng, FLINT 100 ng; signal is FasL bound to Fas
[11] = target: hFasLigand (Flag-tagged) (human) (UniProt P48023); assay: competition ELISA: mrecFas 100 ng adsorbed, hFasLigand-Flag 30 ng, FLINT 500 ng; signal is FasL bound to Fas
[12] = mouse, in vivo
Description: These animals are also useful in further delineating useful treatment protocols for the conditions set out above. Transgene construction. […] The 5' primer, [NT], a BglII restriction site and the 3' primer, [NT], contained an SpeI restriction enzyme site. These were used to amplify the entire FLINT and FLAG coding region. The amplified 1.1 kb fragment was ligated into the multiple cloning site of plasmid […]2 generating plasmid […] (6.7 kb). See Fox et al, Eur. J. Pharmacol. 308:195 (1996). The FLINT gene fragment was excised from […] by BglII and SpeI digestion and gel-purified. This fragment then was blunted with Klenow enzyme and ligated into the Klenow-blunted MluI site of plasmid pLIV.7, provided by John Taylor of the J. David Gladstone Institutes. See Fan et al., Proc. Nat'l Acad. Sci. 91:8724 (1994). Resultant plasmid […] also contains the apo E gene promoter/5' flanking region and an hepatic enhancer sequences called the “hepatic control region” (HCR). […] Broad tissue expression was detected in line 6494 progeny by Northern blot, RT-PCR (TaqMan), Western blot and immunohistochemical analysis and was highest in the liver and kidney. High levels of FLINT protein were detected in the circulation of line 6494 mice by ELISA assay; founder level=490 ng/ml; progeny levels ranged from 285-1360 ng/ml (n=6). No endogenous FLINT was detected by these analyses.

mrecFas = assay: Baseline Fas-FasLigand interaction ELISA; type: binding; conditions: mrecFas 100 ng adsorbed
Description: First a baseline experiment was done for the Fas-FasLigand interaction in vitro. Unless otherwise indicated, all washing steps use TBST (Tris Buffer Saline with Tween 20 from SIGMA) and were done 3 to 6 times.
mrecFas (100 ng) was adsorbed on to ELISA plate. Then the plate was is blocked by TBST plus 0.1% Gelatine. […] After washing the plate 6 times, anti-mouse-Abs-HRP (3000 dilution, Bio-Rad) was added to the wells. After washings three times, visualization enzymatic reaction using ABTS as a substrate was performed. Unless otherwise noted, an ELISA reader commercialized by Molecular Devices Corp. (Menlo Park, Calif.) was used.

Jurkat cells = assay: Recombinant FasL induced Jurkat cell apoptosis (Annexin V/PI, FACS); type: cell-based; conditions: Jurkat + inducer alone 200 ng/ml, overnight
Description: One milliliter of 1×10^6 cell/ml was added into each well of 24 well tissue culture plate and treated with following reagents: soluble Fas L (200 ng), Fas L plus 1 ug mFLINT, Fas L plus 1 ug OPG2-Fc, Trail (200 ng), Trail plus 1 ug mFLINT. Cells were incubated overnight at 37° C. and then stained with Annexin V and PI.

bone marrow cells = assay: Viable cell count of bone marrow cells from 5-FU treated mice after cytokine expansion; type: cell-based, mouse; conditions: FIG. 10; 3 days with SCF and IL-6; mFLINT 1 ug/ml, anti-FasL 1 ug/ml, FasL 0.15 ug/ml; control 3,300
Description: Following a 3 day in vitro expansion period with cytokines, viable cells are counted and used to set up a CFU assay. If mFLINT or anti-FasL antibody protects progenitor cells from apoptosis, one would expect a greater number of colonies in these groups for the CFU assay. […] The values were: control cells: 3,300; FasL-treated cells: 3,000; anti-FasL-treated cells: 4,200; mFLINT-treated cells: 4,900.

Chain of murine FasL of anti-CD3-stimulated mouse T cell hybridoma cells (LTT cells) (mouse) (P41047 whole entry): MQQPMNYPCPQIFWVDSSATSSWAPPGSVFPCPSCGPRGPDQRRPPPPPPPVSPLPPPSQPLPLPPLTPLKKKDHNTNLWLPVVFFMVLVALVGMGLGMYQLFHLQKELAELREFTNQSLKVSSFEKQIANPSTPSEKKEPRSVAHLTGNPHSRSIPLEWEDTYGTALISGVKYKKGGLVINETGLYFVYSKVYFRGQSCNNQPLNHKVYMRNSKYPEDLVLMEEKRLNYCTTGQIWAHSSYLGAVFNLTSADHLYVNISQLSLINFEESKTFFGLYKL

B1: solubleFas (sFas)(FasFc, mouse) (Fc fusion)
chain: QGTNSISESLKLRRRVRETDKNCSEGLYQGGPFCCQPCQPGKKKVEDCKMNGGTPTCAPCTEGKEYMDKNHYADKCRRCTLCDEEHGLEVETNCTLTQNTKCKCKPDFYCDSPGCEHCVRCASCEHGTLEPCTATSNTNCRKQSPRNR
SFas % Annexin V Positive [1]: 56.7%
MTS cytotoxicity assay, absorbance at 490 nm (absorbance at 490 nm) [2]: 1.46

B2: mFLINT (mature human FLINT, non-Flagged, made according to Examples 8 and 9) (receptor)
chain: VAETPTYPWRDAETGERLVCAQCPPGTFVQRPCRRDSPTTCGPCPPRHYTQFWNYLERCRYCNVLCGEREEEARACHATHNRACRCRTGFFAHAGFCLEHASCPPGAGVIAPGTPSQNTQCQPCPPGTFSASSSSSEQCQPHRNCTALGLALNVPGSSSHDTLCTSCTGFPLSTRVPGAEECERAVIDFVAFQDISIKRLQRLLQALEAPEGWGPTPRAGRAALQLKLRRRLTELLGAQDGALLVRLLQALRVARMPGLERSVRERFLPVH
modifications: glycosylated
apoptosis of Jurkat cells, positive staining with Annexin V (FACS) [3]: 18.7
apoptosis of Jurkat cells, Annexin V and PI (FACS) [4]: 3.32
apoptosis of Jurkat cells (dose series of mFLINT) [5]: 14.7
OD, 405 nM [6]: 0.36 OD, 405 nM
OD, 405 nM [7]: 0.36 OD, 405 nM
OD, 405 nM [8]: 0.36 OD, 405 nM
OD, 405 nM [9]: 0.28 OD, 405 nM
OD, 405 nM [10]: 0.18 OD, 405 nM
OD, 405 nM [11]: 0.06 OD, 405 nM

B3: FLINT protein: FLINT-FLAG expressed from Apo E promoter/HCR transgene in line 6494 transgenic mice (protein)
chain: VAETPTYPWRDAETGERLVCAQCPPGTFVQRPCRRDSPTTCGPCPPRHYTQFWNYLERCRYCNVLCGEREEEARACHATHNRACRCRTGFFAHAGFCLEHASCPPGAGVIAPGTPSQNTQCQPCPPGTFSASSSSSEQCQPHRNCTALGLALNVPGSSSHDTLCTSCTGFPLSTRVPGAEECERAVIDFVAFQDISIKRLQRLLQALEAPEGWGPTPRAGRAALQLKLRRRLTELLGAQDGALLVRLLQALRVARMPGLERSVRERFLPVH
modifications: glycosylated
notes: FLINT-FLAG expressed from Apo E promoter/HCR transgene in line 6494 transgenic mice
histopathologic findings [12]: No significant histopathologic findings
observable abnormalities [12]: no observable abnormalities

B4: FasL: Fas ligand; hFasLigand (Flag-tagged) in ELISA, soluble Fas L in cell assays (protein)
chain: QLFHLQKELAELRESTSQMHTASSLEKQIGHPSPPPEKKELRKVAHLTGKSNSRSMPLEWEDTYGIVLLSGVKYKKGGLVINETGLYFVYSKVYFRGQSCNNLPLSHKVYMRNSKYPQDLVMMEGKMMSYCTTGQMWARSSYLGAVFNLTSADHLYVNVSELSLVNFEESQTFFGLYKL
OD, 405 nM (mrecFas; FasL 1 ng): .1
OD, 405 nM (mrecFas; FasL 5 ng): .2
OD, 405 nM (mrecFas; FasL 10 ng): .3
OD, 405 nM (mrecFas; FasL 50 ng): .7
OD, 405 nM (mrecFas; FasL 100 ng): 1.2
OD, 405 nM (mrecFas; FasL 500 ng): 1.6
Cell apoptosis (Annexin V and PI, FACS) (Jurkat cells): 67.39
bone marrow cell count (bone marrow cells): 3,000 ×1000
